Reference: article PMC7509637 (Advanced Science, 2020)
“Also recorded” adds a separate entry of the source.

B1: FapCS: FapC seeds obtained by sonication of mature FapC fibrils (P. aeruginosa) (protein)
chain: GNEGGWHPPKPNPQSNNKGGATALVVDTQQNYNNKVSNFGTLNNASVSGSIKDASGNVGVNVAAGDNNQQANAAALASADASFVFGTATASTSVLQSGYGNTLNNYSNPNTASLSNSANNVSGNLGVNVAAGNFNQQKNDLAAAVSNGQYSTAGSAASQTSTGNTTVNSANYAYGGTYVSLKLNADGSYKGTSDQIGDVYLDTWEGQTHPGGSNTGHIDVDSQAQGAKDLNHDGGAFAFKEKGDVDLKGTVSGFIPAIVGFKTPVTNNASLSNSLQNVSGNVGVNIAAGGGNQQSNSLSIAAGCSSCPAGGESLGF

Experiments:
[1] = system: adult zebrafish brain; experiment: IHC for Aβ deposition in brain of adult zebrafish; format: in vivo, zebrafish (AB, Danio rerio); details: two days postinjection (so in the source)
Experimental: (§1) Adult zebrafish (10 months) were employed for the study. Prior to microinjection, adult zebrafish were anesthetized by placing them in a beaker filled with ice‐chilled tricaine (0.01% in Holtfreter's buffer) for 20 s. […] The needle penetrated between left and right telencephalon for not more than 1 mm and injection volume was 1 µL. The syringe was washed with ethanol and PBS in between the injections. The injections were made under a stereomicroscope and fish were held in place with forceps. After microinjection, the fish was placed back in the water tank for recovery.
The head of the fish was separated at pectoral fin point with a sharp blade and fixed in paraformaldehyde as described in the “Animal husbandry and ethics statement” section. The fixed heads were dehydrated by dipping in gradual concentration of ethanol, i.e., 20%, 40%, 60%, 80%, and 100% with 10 min at each step. The heads were treated with 20% sucrose overnight, mounted with Tissue Trek OCT mounting medium at −20 °C. The heads were then sectioned into 20 × 10^−6 M thick section with a cryostat. The sections were mounted on a gelatinized glass slide and immunostained with antibodies. The sections were dried, washed thrice in PBS (pH 7.4), and TritonX‐100 (0.05% in PBS) for 5 min each. […] The sections were imaged by a fluorescence microscope and fluorescence intensities were measured from the images with Fiji ImageJ analysis.

[2] = system: Aβ fibrils; experiment: AFM of fibrils, FiberApp statistical analysis; details: compared with the control
Experimental: Aβ incubated in the presence or absence of FapCS, FapC monomers, FapC fibrils or bLgS were subjected to TEM imaging. After incubation for 12 h, a drop of sample was applied on a glow‐discharged carbon‐coated copper grid. After 1 min, the sample was blotted and then negatively stained with uranyl acetate (1%) for 30 s. The dried grid was then imaged with a Technei F20 TEM at 200 kV. For AFM, a drop of sample was placed on freshly cleaved mica surface and rinsed with water after 2 min and dried with pressurized air. The sample was scanned with an AFM (Nanoscope VIII Multimode Scanning Force Microscopes, Bruker), covered with an acoustic hood to minimize the vibrational noise. Images were acquired under the tapping mode with a silicon nitride cantilever (Bruker). AFM images were processed with Nanoscope Analysis 1.5 software to flatten the background and to calculate the statistical parameters.

[3] = system: Aβ amyloid fibrils; experiment: STED microscopy of FapCS with Aβ fibrils; details: FapCS labeled with Alexa 647, ThT-labeled Aβ fibrils, 12 h
Experimental: STED microscopy was employed to study the interaction of FapCS with Aβ. FapCS was labeled with Alexa 647 NHS ester via carbodiimide coupling reaction (1:1 molar ratio) in PBS (pH 8) for a duration of 5 h. The labeled fragments were purified via centrifugal filters ([…]). Labeled FapCS was incubated with Aβ at the same molar ratio as for the ThT assay. After 12 h of incubation, the FapCS‐seeded Aβ fibrils were incubated with ThT dye (100 × 10^−6 M) for 30 min to label the Aβ backbone and then purified via centrifugal filters ([…]). A drop of 20 µL of the sample was placed on a poly‐L‐lysine coated coverslip, flipped on a glass slide and then imaged under STED microscope. Alexa and ThT fluorescence were imaged under the excitations of 647 and 488 nm and emissions of 665 and 525 nm, respectively.

[4] = system: adult zebrafish; experiment: Cognitive memory function of adult zebrafish (arena 2 avoidance); format: in vivo, zebrafish (AB, Danio rerio); details: FapCS alone
Experimental: as §1
The behavioral pathology of the adult fish was observed after 4 d and 2 weeks of microinjection. The behavioral pathology of movement frequency and traveled distance was recorded with a zebrabox (Viewpoint) in a 1 L swimming tank. For cognitive function test, the tank was hypothetically divided into two parts of arena 1 and arena 2, and arena 2 was labeled by pasting a red paper at the bottom of the tank. The behavior of the untreated fish was recorded as positive control, in both arenas. […] After training, the swimming behavior of the fish was recorded in whole tank and then analyzed for arena 1 versus arena 2 with software EthnoVision X1.
The observations were made for 1 min with three fish per samples. […] Movement trajectories were also recorded with the instrument's camera.

Molecule | Aβ deposition in brain (in words) [1] | rise in fibrillar diameter of Aβ upon seeding vs control [2] | interaction with Aβ fibrils by STED [3] | cognitive memory function (in words), time not stated [4]
amyloid beta [Aβ] | did not render any deposition in the fish brain | – | – | –
B1 | – | 37% | adsorption of FapCS (labeled with Alexa 647) onto Aβ amyloid fibrils; also recorded: intercalation of FapCS inside the Aβ fibrils; also recorded: adsorbed onto or integrated into Aβ fibrils | did not induce any cognitive deficiencies
